Measurements as given in patent publication US20180087042A1 (OPKO BIOLOGICS, published 2018).

Target: Factor X, P00742
Sequence (P00742 whole entry, looked up): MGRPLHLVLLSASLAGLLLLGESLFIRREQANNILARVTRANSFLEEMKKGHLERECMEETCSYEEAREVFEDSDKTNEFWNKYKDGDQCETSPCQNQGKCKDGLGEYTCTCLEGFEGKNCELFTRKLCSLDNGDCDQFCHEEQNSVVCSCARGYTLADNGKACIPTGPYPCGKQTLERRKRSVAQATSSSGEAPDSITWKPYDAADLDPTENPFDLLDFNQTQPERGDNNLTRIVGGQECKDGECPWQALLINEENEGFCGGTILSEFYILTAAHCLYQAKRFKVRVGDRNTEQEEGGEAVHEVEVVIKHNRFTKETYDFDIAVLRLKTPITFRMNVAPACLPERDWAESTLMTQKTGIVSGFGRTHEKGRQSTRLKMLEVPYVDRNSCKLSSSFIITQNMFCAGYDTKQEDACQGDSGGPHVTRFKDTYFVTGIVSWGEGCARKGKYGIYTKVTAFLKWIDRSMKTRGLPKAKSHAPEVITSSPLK

B1: rFVII-CTP (Factor VII-CTP, one CTP at the carboxy terminus) (protein)
chain: AVFVTQEEAHGVLHRRRRANAFLEELRPGSLERECKEEQCSFEEAREIFKDAERTKLFWISYSDGDQCASSPCQNGGSCKDQLQSYICFCLPAFEGRNCETHKDDQLICVNENGGCEQYCSDHTGTKRSCRCHEGYSLLADGVSCTPTVEYPCGKIPILEKRNASKPQGRIVGGKVCPKGECPWQVLLLVNGAQLCGGTLINTIWVVSAAHCFDKIKNWRNLIAVLGEHDLSEHDGDEQSRRVAQVIIPSTYVPGTTNHDIALLRLHQPVVLTDHVVPLCLPERTFSERTLAFVRFSLVSGWGQLLDRGATALELMVLNVPRLMTQDCLQQSRKVGDSPNITEYMFCAGYSDGSKDSCKGDSGGPHATHYRGTWYLTGIVSWGQGCATVGHFGVYTRVSQYIEWLQKLMRSEPRPGVLLRAPFPSSSSKAPPPSLPSPSRLPGPSDTPILPQ
FVII chromogenic activity (AssaySense Human FVII Chromogenic Activity Assay Kit): The addition of the CTP peptide at the C-terminal of the rFVII protein did not impair the FVII serine protease activity
